These results are taken from publication doi:10.1101/2024.09.04.610228 (bioRxiv, 2024).

Usually Kd stands for a measure of binding affinity in units of concentration. Read a low Kd as a tighter complex.

In this experiment the target is FOXO4 forkhead domain (FHD) (95-195) (UniProt P98177 95-195). Put plainly: fluorescence polarisation.

Ends that are not written are not given here.

FOXO4 forkhead domain (FHD) (95-195), sequence (P98177 95-195): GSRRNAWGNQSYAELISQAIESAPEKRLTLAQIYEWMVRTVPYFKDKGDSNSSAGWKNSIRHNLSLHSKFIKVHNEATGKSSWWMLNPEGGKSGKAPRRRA

On to ALMLSPAAIAQWFTAA [CAND], for which the “fold enhancement of inhibitory ability against p53 TAD PEP” value was approximately 3 fold. Molecule DLMLSPDDIEQWFTED (also: FITC label, position not given here) [FITC-labeled p53 TAD PEP (42-57)] came in with a Kd of 110 nM. This lies in the sub-micromolar range.
